Laboratory results published in article PMC8361300.
Each block holds one substance with its values, some of them ahead of it.

Columns and labels:
[1] = target: Nucleobindin-2 from Gallus gallus (ggNucb2) (Gallus gallus); assay: SAXS; protein 3.5 mg/ml with 5 mM EDTA, 10 mM Ca2+, 10 mM Mg2+ or 100 µM Zn2+; molecular mass from I(0) against BSA
[2] = target: Nucleobindin-2 from Gallus gallus (ggNucb2) (Gallus gallus); assay: AUC; sedimentation velocity, 50,000 rpm, 20 °C, buffer C (20 mM Tris-HCl, 150 mM NaCl, pH 7.5) with 100 µM ZnCl2 (also 200 and 300 µM); protein 0.5, 0.75 and 1.0 mg/ml; c(s) model
[3] = target: Nucleobindin-2 from Gallus gallus (Gallus gallus); assay: ITC; Ca2+ (4000 µM) titrated into ggNucb2 (50 µM), 25 °C, 20 mM HEPES, 150 mM NaCl, pH 7.5; broad range fit to the AA BB model with ligand-mediated dimerization ((A + A) + B + B to (AA)BB) in SEDPHAT; constant of the step monomers to dimer
[4] = target: Nucleobindin-2 from Homo sapiens (hsNucb2) (Homo sapiens); assay: SAXS; protein 3.5 mg/ml with 5 mM EDTA, 10 mM Ca2+, 10 mM Mg2+ or 100 µM Zn2+; molecular mass from I(0) against BSA
[5] = target: Nucleobindin-2 from Homo sapiens (hsNucb2) (Homo sapiens); assay: AUC; sedimentation velocity, 50,000 rpm, 20 °C, buffer C (20 mM Tris-HCl, 150 mM NaCl, pH 7.5) with 5 mM EDTA (apo); protein 0.5, 0.75 and 1.0 mg/ml; c(s) model

stoichiometry N [1]: 2
stoichiometry N [2]: > 2
Substance: Nucleobindin-2 from Gallus gallus (ggNucb2) (natural protein)

Kd [3]: 16 nM
Substance: Nucleobindin-2 from Gallus gallus (natural protein)

stoichiometry N [4]: 2
stoichiometry N [5]: 2
Substance: Nucleobindin-2 from Homo sapiens (hsNucb2) (natural protein)
